Source: paper PMC4549619, “Engineering catechol 1, 2-dioxygenase by design for improving the performance of the cis, cis-muconic acid synthetic pathway in Escherichia coli” (Scientific Reports, 2015)

B1: catechol 1,2-dioxygenase (CatA) (Acinetobacter baylyi ADP1) (protein)
chain: MEVKIFNTQDVQDFLRVASGLEQEGGNPRVKQIIHRVLSDLYKAIEDLNITSDEYWAGVAYLNQLGANQEAGLLSPGLGFDHYLDMRMDAEDAALGIENATPRTIEGPLYVAGAPESVGYARMDDGSDPNGHTLILHGTIFDADGKPLPNAKVEIWHANTKGFYSHFDPTGEQQAFNMRRSIITDENGQYRVRTILPAGYGCPPEGPTQQLLNQLGRHGNRPAHIHYFVSADGHRKLTTQINVAGDPYTYDDFAYATREGLVVDAVEHTDPEAIKANDVEGPFAEMVFDLKLTRLVDGVDNQVVDRPRLAV

Experiments:
Oc1ccccc1O = assay: initial rates, OD260 product formation, Michaelis-Menten nonlinear fit; assay type: biochemical, Acinetobacter baylyi; details: 100 mM potassium phosphate pH 7.4, 25 °C, catechol 0-200 μM
Description: (§1) initial rates, OD260 product formation, Michaelis-Menten nonlinear fit on catechol 1,2-dioxygenase (CatA)

[1] = substrate: Oc1ccccc1O; assay: as above; assay type: biochemical, Acinetobacter baylyi; details: 100 mM potassium phosphate pH 7.4, 25 °C, catechol 0-200 μM; remark: listed apart in the source
Description: as §1

Row | Molecule | Km (Oc1ccccc1O) [µM] | kcat (Oc1ccccc1O) [s⁻¹] | Km [1] [µM] | kcat [1] [s⁻¹]
1 | catechol 1,2-dioxygenase (CatA) (Acinetobacter baylyi ADP1; L73F) | 151.09 ± 10.299 | 5.65 ± 0.163 |  | 
2 | catechol 1,2-dioxygenase (CatA) (Acinetobacter baylyi ADP1; L73F/P76A) | 45.96 ± 7.691 | 39.5 ± 0.221 |  | 
3 | catechol 1,2-dioxygenase (CatA) (Acinetobacter baylyi ADP1; P76A) | 65.91 ± 7.753 | 46.56 ± 0.201 |  | 
4 | B1 |  |  | 7.88 ± 1.239 | 7.86 ± 0.248
